The results in this text go back to patent US20040091855A1, “Method for production of antivirals by use of HIV-derived HR1 peptides, and trimers formed therefrom” (priority 2002, published 2004).

One may read the IC50 as the point on the concentration scale where inhibition reaches its midpoint. High values mean weaker potency, low ones greater potency. What is called Kd is the concentration at which binding is half-saturated. High values mean a looser complex, low ones a tighter complex.

Assay [1] has as its target HIV-1 gp41 of strain HIV IIIB (on infectious virus) (HIV-1 strain HIVIIIB), P04578. The assay is described as follows: cell-based or functional assay.
Assay [2] addresses synthetic peptide having the amino acid sequence of SEQ ID NO:36 (trimers formed therefrom) (HIV-1 (HIVIIIB)). The assay is described as follows: fluorescence polarization competition; 50 nM trimers of SEQ ID NO:36, 0.2 nM fluorescein-labeled HR2 peptide as competitor. In general terms: Polarisation of emitted light reports the rotation of a fluorescent probe.
The target of assay [3] is HR2 peptide having the amino acid sequence of SEQ ID NO:33 (HIV-1). In words: surface plasmon resonance (Biacore protein chip assay). A general note: SPR reads the build-up and loss of mass on a sensor chip optically.

B1: synthetic peptide having the amino acid sequence of SEQ ID NO:38 (peptide)
peptide: QARQLLSGIVQQQNNLLRAIEATQHAVQALVWGVKQLQARVLALERYIKDQ
modifications: not checked
In assay [1], B1 came in with an Antiviral activity against HIV IIIB, IC50 (MAGI/cMAGI infectivity assay) of 0.18 µg/mL and an Antiviral activity against HIV IIIB, IC90 (MAGI/cMAGI infectivity assay) of 0.88 µg/mL. Regarding QQQNNLLRAIEAQQHLLQLTVWGIKQLQARILAVERYLKDQ (modifications not checked) [HR1 peptide of native sequence having the amino acid sequence of SEQ ID NO:27], in assay [1], the Antiviral activity vs. HIV IIIB, IC50 (MAGI/cMAGI infectivity assay) turned out to be 4.69 µg/mL and the Antiviral activity vs. HIV IIIB, IC90 (MAGI/cMAGI infectivity assay) came out at 23.2 µg/mL. In the case of QQQNNLLRAIEAQQHLLQLTAWGIKQLQARILAVERYLKDQ (modifications not checked) [synthetic peptide having the amino acid sequence of SEQ ID NO:29], in assay [1], the Antiviral activity vs. HIV IIIB, IC50 (MAGI/cMAGI infectivity assay) stood at 2.81 µg/mL and the Antiviral activity vs. HIV IIIB, IC90 (MAGI/cMAGI infectivity assay) was 5.86 µg/mL. The corresponding values for QQQNNLLRAIEAQQHLLQLTVFGIKQLQARILAVERYLKDQ (modifications not checked) [synthetic peptide having the amino acid sequence of SEQ ID NO:43] are 1.34 µg/mL and 3.81 µg/mL. Consider WMEWDREINNYTSLIHSLIEESQNQQEKNEQELLEL (modifications not checked) [HR2 peptide having the amino acid sequence of SEQ ID NO:33], for which, in assay [2], the IC50 stood at 68 nM.

B2: synthetic peptide having the amino acid sequence of SEQ ID NO:39 (peptide)
peptide: QARQLVSGLVQQQNNILRALEAQQHALQATVWGIKQLQARVLALERYIKDQ
modifications: not checked
In assay [1], B2 gave an Antiviral activity against HIV IIIB, IC50 (MAGI/cMAGI infectivity assay) of 0.26 µg/mL and an Antiviral activity against HIV IIIB, IC90 (MAGI/cMAGI infectivity assay) of 1.2 µg/mL. Turning to QARQLVSGLVQQQNNILRALEATQHAVQALVWGVKQLQARVLALERYIK (modifications not checked) [synthetic peptide having the amino acid sequence of SEQ ID NO:35], the Kd in assay [3] is 21.8 nM. Besides, in assay [1], the Antiviral activity against HIV IIIB, IC50 (MAGI/cMAGI infectivity assay) stood at 0.14 µg/mL and the Antiviral activity against HIV IIIB, IC90 (MAGI/cMAGI infectivity assay) was 0.69 µg/mL. In assay [1], QARQLVSGLVQQQNNILRALEATQHLVQLLVWGVKQLQARVLALERYIK (modifications not checked) [peptide having the amino acid sequence of SEQ ID NO:41] came in with an Antiviral activity against HIV IIIB, IC50 (MAGI/cMAGI infectivity assay) of 3.89 µg/mL and an Antiviral activity against HIV IIIB, IC90 (MAGI/cMAGI infectivity assay) of 14.5 µg/mL. Regarding QARQLVSGLVQQQNNILRALEATQHAVQALVWGVRQLQARVLALERYIK (modifications not checked) [synthetic peptide having the amino acid sequence of SEQ ID NO:37], the Antiviral activity against HIV IIIB, IC50 (MAGI/cMAGI infectivity assay) in assay [1] is < 0.78 µg/mL.
